In patent US10280197B2, “Discovery of the first selective C5A receptor 2 (C5L2/C5AR2) ligands” (The Regents of the University of California, priority 2015, dated 2019):
Each block holds one molecule with its values, some of them ahead of it.

Tests used:
[1] = biological target: T1, human C5a2 (Flp-In CHO-C5a2 membranes) (Homo sapiens, UniProt Q9P296); assay: C5a2 receptor binding, scintillation proximity assay (125I-C5a displacement); details: concentrations up to 1 μM
T1 construct: expressed in transfected cells
Procedure: Membranes were prepared from Flp-In CHO-05a2 cells by a previously described method^46. Briefly, cells were washed with PBS, pH 7.4, and harvested into buffer (50 mM Tris-HCl, pH 7.4, 5 mM MgCl2, 1 mM CaCl2) before homogenizing with a Polytron homogenizer for 3 min on setting 22. Cells were centrifuged at 150×g for 5 min at 4° C. The supernatant was recovered and centrifuged at 22 000×g for 1 h at 4° C. Membrane pellets were then resuspended in 0.4 mL of ice-cold buffer (50 mM Tris-HCl, pH 7.4, 5 mM MgCl2, 1 mM CaCl2, containing 10% glycerol) with aliquots stored at −80° C. The protein concentration of the membrane preparation was determined by Bradford method^47.
C5a2 receptor binding studies were performed using a modification of a previously described scintillation proximity assay (SPA) method^48. Briefly, C5a2 SPA studies were performed in 96-well white isoplates with clear flat bottoms (Perkin Elmer, Waltham, Mass., USA). SPA beads (200 μg/well) were added, following the addition of various concentrations of competing ligands or buffer (6 pM to 500 μM) in a total volume of 80 μL of assay buffer (50 mM Tris-HCl, pH 7.4, 0.5% BSA, 5 mM MgCl2, 1 mM CaCl2). ^125I-C5a (˜20 pM) (specific activity, 2200 Ci mmol^−1) (Perkin Elmer) was added to C5a2 membrane preparations (˜2 μg/well). The final reaction volume per well comprised 20 μL of ligand/buffer, 20 μL of SPA beads, 20 μl of membrane and the assay was initiated by the addition of 20 μL of ^125I-C5a. The plate was then sealed using TopSeal-A (Perkin Elmer) sealing film and incubated with shaking for 1 h at room temperature. Radioligand binding was then assessed for 30 s/well using a 1450 Microbeta scintillation counter (Perkin Elmer).

[2] = Estimated blood concentration after i.v. dose; type: in vivo; details: C57BL/6J, whole blood, intravenous; 3 mg/kg, assuming a blood volume of 2 mL for a 25 g mouse
Procedure: To further explore the selectivity of the ligands P32 was tested in a mouse model of C5a-induced neutrophil mobilization (FIG. 6). […] Assuming a mouse blood volume of 2 mL for a 25 g mouse, a concentration of 3 mg/kg would result in Cmax blood concentrations of ˜50 uM, a dose within the active range of this compound from our in vitro studies

LPS stimulated HMDM [3] = assay: Cytokine release from LPS stimulated HMDM (ELISA); type: cell-based, human; details: C5a1 antagonist PMX53 10 μM pre-incubated 30 min
Procedure: FIG. 4 is a panel of graphs showing the testing P32 and P59 for effects on cytokine release from LPS stimulated HMDM. Measurement of human inflammatory cytokines IL-6 (4A, 4B), TNFα (4C, 4D) and IL-10 (4E, 4F) release from HMDM, 24 h after co-stimulation with LPS (10 ngml^−1) and C5a (0.1-100 nM), P32 or P59 (0.1-100 μM) with or without C5a1 antagonist PMX53 (10 μM) present. Cytokine release was quantified by ELISA. Data is representative of five independent HMDM donors performed in triplicate (n=5). CTRL represents non-stimulated HMDM. Data is normalised to LPS response (100%) for each donor. Error bars represent SEM. *P<0.05, ** P<0.01, *** P<0.001, **** P<0.0001 by one-way ANOVA followed by Dunnett's post hoc test or Sidak's post hoc test for comparisons+/−PMX53.
Briefly, HMDMs were seeded in 96 well tissue culture plates (Nunc) at 100 000 cells/well and allowed to adhere overnight at 37° C. and 5% CO2. The next day HMDMs were stimulated with E. coli derived LPS (10 ng ml^−1) only or LPS (10 ng ml^−1) and either C5a or C5a2 ligands at various concentrations (1-100 nM (C5a) or 0.1-100 μM (C5a2 ligands)). For testing cytokine release in the presence of C5a1 antagonist (PMX53), cells were pre-incubated with PMX53 at 10 μM for 30 min prior to addition of C5a or C5a2 ligands. Following ligand addition HMDMs were returned to 37° C. and 5% CO2 incubator and 24 h after stimulation supernatant was removed from cells and transferred to 96 well polypropylene microplate (Nunc) and stored at −20° C. till needed for assay. Quantification of cytokine release was performed using ELISA kits (BD OptEIA™) as per manufacturers' instructions (BD Biosciences, San Jose, Calif., USA).

C5a1-C5a2 heteromer = biological target: T2, C5a1-C5a2 heteromer (Homo sapiens, UniProt P21730+Q9P296); details: high concentrations of C5a, previously shown; cited from earlier work
T2 construct: expressed in transfected cells; host or cells: HEK293 (transient)

LPS stimulated HMDM [4] = details: literature reference 33; cited from earlier work
C5a2 = C5a2 (Homo sapiens, UniProt Q9P296); assay: BRET C5a2-β-arrestin 2 recruitment assay in HEK293 cells; type: cell-based; parameters: expressed in transfected cells; host or cells: HEK293 (transient)
Procedure: Assays were performed as a ligand-induced BRET experiment similar to previously described^17, 31, 49. In brief, HEK293 cells were transiently transfected with either C5a1-Rluc8 and β-arrestin 2-Venus or C5a2-Venus and β-arrestin 2-Rluc8 or C5a1-Rluc8 and C5a2-Venus in a 100-mm dish. 24 h after transfection cells were collected and transferred to a 96-well white microplate (Corning, N.Y., USA) in phenol-red free DMEM containing 5% FBS and 25 mM HEPES (Life Technologies). Cells were allowed to settle for 24 h and then were incubated with 30 μM Enduren (Promega, Madison, Wis., USA) for 2 h at 37° C. and 5% CO2 to ensure that the substrate had reached equilibrium. Following incubation BRET baseline measurements were taken for 15 min then ligands were added to plate and BRET measurements were taken for a further 1 h at 37° C. using a POLARstar optima microplate reader (BMG Labtech, Ortenberg, Germany). Filtered light emissions were sequentially measured for 1 s in each of the following windows 460-490 nm and 520-550 nm, both before and following ligand addition. The ligand-induced BRET ratio was calculated by subtracting the ratio of 520-550 nm emission over the 460-490 nm emission for a vehicle-treated sample from a ligand-treated sample of the same aliquot of cells in triplicate. The BRET ratio was calculated by subtracting the ratio of 520-550 nm emission over the 460-490 nm emission for a cell sample containing the C5a1-Rluc8 or β-arrestin 2-Rluc8 construct from a cell sample containing both the C5a1-Rluc8 and β-arrestin 2-Venus or C5a2-Venus and β-arrestin 2-Rluc8 or C5a1-Rluc8 and C5a2-Venus constructs. Peptides were also tested for ligand-induced β-arrestin 2 recruitment at 100 μM using DiscoveRx PathHunter kits for human C5a1 and C5a2 (DiscoveRx Corporation. Birmingham, UK), according to the manufacturer's instructions.

T1 sequence (Q9P296 whole entry): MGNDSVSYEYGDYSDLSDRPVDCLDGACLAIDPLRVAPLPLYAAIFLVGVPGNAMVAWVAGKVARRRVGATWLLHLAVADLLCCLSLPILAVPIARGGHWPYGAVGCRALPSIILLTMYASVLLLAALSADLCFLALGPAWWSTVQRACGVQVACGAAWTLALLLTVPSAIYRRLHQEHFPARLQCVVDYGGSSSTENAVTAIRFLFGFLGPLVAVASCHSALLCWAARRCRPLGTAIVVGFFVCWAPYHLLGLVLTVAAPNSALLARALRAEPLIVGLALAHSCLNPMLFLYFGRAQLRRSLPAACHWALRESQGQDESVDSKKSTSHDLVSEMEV
C5a2, sequence (Q9P296 whole entry): as above
C5a2, sequence (P32121 whole entry partner): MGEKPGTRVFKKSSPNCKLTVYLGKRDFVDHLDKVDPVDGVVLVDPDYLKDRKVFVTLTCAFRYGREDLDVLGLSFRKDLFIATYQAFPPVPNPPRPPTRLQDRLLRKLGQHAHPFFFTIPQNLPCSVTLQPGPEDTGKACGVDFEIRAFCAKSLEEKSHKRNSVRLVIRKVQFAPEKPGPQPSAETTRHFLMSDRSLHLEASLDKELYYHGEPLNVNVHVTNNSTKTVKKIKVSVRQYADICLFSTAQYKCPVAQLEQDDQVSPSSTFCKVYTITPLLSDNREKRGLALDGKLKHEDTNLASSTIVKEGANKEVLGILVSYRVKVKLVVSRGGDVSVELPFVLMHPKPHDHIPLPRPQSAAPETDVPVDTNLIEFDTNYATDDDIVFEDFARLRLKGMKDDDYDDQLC
T2 sequence (P21730 whole entry): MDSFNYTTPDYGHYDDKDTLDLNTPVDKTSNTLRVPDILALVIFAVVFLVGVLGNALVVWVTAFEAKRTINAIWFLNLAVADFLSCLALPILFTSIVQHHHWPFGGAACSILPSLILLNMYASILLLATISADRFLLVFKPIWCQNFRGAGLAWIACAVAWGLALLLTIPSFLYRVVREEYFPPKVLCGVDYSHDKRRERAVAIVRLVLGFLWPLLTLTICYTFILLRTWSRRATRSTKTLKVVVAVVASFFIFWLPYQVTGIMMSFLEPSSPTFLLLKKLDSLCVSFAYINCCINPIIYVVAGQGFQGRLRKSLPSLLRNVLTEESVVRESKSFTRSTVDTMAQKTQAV
T2 sequence (Q9P296 whole entry): as the sequence (Q9P296 whole entry) above

Molecule: C3a-des Arg: human isolated C3a-des Arg/acylation-stimulating protein (ASP), purchased from Merck Biosciences
- displacement of 125I-C5a from Flp-In CHO-C5a2 membrane preparations [1]: do not bind

B2: C5a-des Arg: human isolated complement protein purchased from Merck Biosciences (protein)
chain: TLQKKIEEIAAKYKHSVVKKCCYDGACVNNDETCEQRAARISLGPRCIKAFTECCVVASQLRANISHKDMQLG
- displacement of 125I-C5a from Flp-In CHO-C5a2 membrane preparations [1]: full inhibition

Further lines, with some results ahead:

- Cmax [2]: ~50 µM
Molecule: Ac-RHYPYWR-OH [Peptide P32, Ac-RHYPYWR-OH]

- displacement of 125I-C5a from Flp-In CHO-C5a2 membrane preparations [1]: do not bind
Molecule: C3a: human isolated complement protein purchased from Merck Biosciences [Peptide C3a]

- displacement of 125I-C5a from Flp-In CHO-C5a2 membrane preparations [1]: full inhibition
- C5a2-β-arrestin 2 BRET Recruitment (% of C5a) (C5a2): 100 % of C5a
- EC50 (C5a2; calculated at ~40 min after ligand addition): 50.3 ± 4.2 nM
B1: C5a: complement activation peptide; human recombinant C5a purchased from Sino Biologicals (protein)
chain: TLQKKIEEIAAKYKHSVVKKCCYDGACVNNDETCEQRAARISLGPRCIKAFTECCVVASQLRANISHKDMQLGR
- IL-6 release from LPS stimulated HMDM in the presence of PMX53 (LPS stimulated HMDM [3]): completely blocked
- IL-10 release from LPS stimulated HMDM in the presence of PMX53 (LPS stimulated HMDM [3]): completely blocked
- TNFα release from LPS stimulated HMDM in the presence of PMX53 (LPS stimulated HMDM [3]): completely blocked
- up-regulation of heteromer formation between C5a1-C5a2 (C5a1-C5a2 heteromer): can up-regulate heteromer formation
- IL-6 release from LPS stimulated HMDMs (LPS stimulated HMDM [4]): dose-dependently inhibits
- IL-10 release from LPS stimulated HMDMs (LPS stimulated HMDM [4]): increasing the release
- TNFα release from LPS stimulated HMDMs (LPS stimulated HMDM [4]): dose-dependently inhibits
